The DeepSol protein solubility set

Experiment: soluble on expression in E. coli; label from the status in PepcDB or PDB records

Sequence | soluble on expression in E. coli
SAPVEHVVADAGAFLRHAALQDIGKNIYTIREVVTEIRDKATRRRLAVLPYELRFKEPLPEYVRLVTEFSKKTGDYPSLSATDIQVLALTYQLEAEFVGVSHLKQEPQKVKVSSSIQHPETPLHISGFHLPYKPKPPQETEKGHSACEPENLEFSSFMFWRNPLPNIDHELQELLIDRGEDVPSEEEEEEENGFEDRKDDSDDDGGGWITPSNIKQIQQELEQCDVPEDVRVGCLTTDFAMQNVLLQMGLHVLAVNGMLIREARSYILRCHGCFKTTSDMSRVFCSHCGNKTLKKVSVTVSDDGTLHMHFSRNPKVLNPRGLRYSLPTPKGGKYAINPHLTEDQRFPQLRLSQKARQKTNVFAPDYIAGVSPFVENDISSRSATLQVRDSTLGAGRRRLNPNASRKKFVKKR | soluble
MGVYDYKNFGTADSKALFSDAMAITLYSYHNLDNGFAAGYQHNGFGLGLPATLVTALLGGTDSQGVIPGIPWNPDSEKLALDAVKKAGWTPITASQLGYDGKTDARGTFFGEKAGYTTAQVEILGKYDAQGHLTEIGIAFRGTSGPRENLILDSIGDVINDLLAAFGPKDYAKNYVGEAFGNLLNDVVAFAKANGLSGKDVLVSGHSLGGLAVNSMADLSGGKWGGFFADSNYIAYASPTQSSTDKVLNVGYENDPVFRALDGSTFTGASVGVHDAPKESATDNIVSFNDHYASTAWNLLPFSILNIPTWISHLPTAYGDGMNRIIESKFYDLTSKDSTIIVANLSDPARANTWVQDLNRNAETHKGSTFIIGSDSNDLIQGGSGNDYLEGRAGNDTFRDGGGYNVILGGAGNNTLDLQKSVNTFDFANDGAGNLYVRDANGGISITRDIGSIVTKEPGFLWGLFKDDVTHSVTASGLKVGSNVTQYDASVKGTNGADTLKAHAGGDWLFGLDGNDHLIGGVGNDVFVGGAGNDLMESGGGADTFLFNGAFGQDRVVGFTSNDKLVFLGVQGVLPNDDFRAHASMVGQDTVLKFGGDSVTLVGVALNSLSADGIVIA | soluble
MSLHYPFVTNDDIEWMLSICVEWRLPEIAKEIYTTLGNQMLSAHNIIESIANFSRAGKYELVKSYSWLLFEASCMEGQKLDDPVLNAIVSKNSPAEDDVIIPQDILDCVVTNSMRQTLAPYAVLSQFYELRDREDWGQALRLLLLLIEFPYLPKHYLVLLVAKFLYPIFLLDDKKLMDEDSVATVIEVIETKWDDADEKSSNLYETIIEADKSLPSSMATLLKNLRKKLNFKLCQAFMEGHHHHHH | not soluble
MGSDKIHHHHHHMQATMTDKNTRELLLDAATTLFAEQGIAATTMAEIAASVGVNPAMIHYYFKTRDSLLDTIIEERIGRIIDMIWEPVTGEEDDPLIMVRDLVNRIVNTCETMLWLPSLWIREIVNEGGALREKMLNNIPIDKMNKFSAKIAEGQKQGVINSGIDSRLLIGSIIGLTMLPLATAKLRDQIPTMKGLSSEDIVCHVTALLFTGLTNPSNSDDIKKQRT | not soluble
GPGSMSKQKNVEINYDEVDETTGFKAAEMFVWLKFEESYLQKPEDEREADVDAWADTFCEEMEGEGMNYDRNFVRSVCTLGIYAGLRDEFQQRTGSGKAIYANGDRYDGEFFEGKKHGRGRYIFVSLGKSECDRIVEKELQKLGDVVAGENFVKAVADRYKIGCHIISYIIEYGFHPCYHGDYVRGKRVGRGLMKNKDGTVYKGEFLENKREGRGMFFYLNGDIYSGNWKNGRKHGYGTYHFVGGNEYRGMWNDGVFTHGQWIFPDGVYYEGHFNKKNRPCDEAASMHYPALKMAQTGTFKRGTWAPTSALEVCEETPVDGMTWTD | soluble
MNSEHPMTDRVVYRSLMADNLRWDALQLRDGDIIISAPSKSGLTWTQRLVSLLVFDGPDLPGPLSTVSPWLDQTIRPIEEVVATLDAQQHRRFIKTHTPLDGLVLDDRVSYICVGRDPRDAAVSMLYQSANMNEDRMRILHEAVVPFHERIAPPFAELGHARSPTEEFRDWMEGPNQPPPGIGFTHLKGIGTLANILHQLGTVWVRRHLPNVALFHYADYQADLAGELLRPARVLGIAATRDRARDLAQYATLDAMRSRASEIAPNTTDGIWHSDERFFRRGGSGDWQQFFTEAEHLRYYHRINQLAPPDLLAWAHEGRRGYDPAN | soluble
MGHHHHHHSHMSAFASSDRAEKSGIALEAQQKIYEKYDKNLAGEILQWVQNVTGQSFDTQGDADNLVKVFQDGSLLCTLANSLKPGSVKKVNTSAMAFKKMENISFFLKFAEEYVQKSELFQTVDLYEGQDPNAVLICLASLARKSEKNFGRSGLGPKEAQGDRREWTDEQLKAGHNVIGLQMGSNKGATASGLNMGNTRHM | soluble
MRGSHHHHHHTDPALRALGLKQVHHIAIIATDYAVSKAFYCDILGFTLQSEVYREARDSWKGDLALNGQYVIELFSFPFPPERPSRPEACGLRHLAFSVDDIDAAVAHLESHNVKCETIRVDPYTQKRFTFFNDPDGLPLELYEQGLCGR | soluble
MNLRSRLVNATERAVLFQIFKDVQNDPEKYDNAVEAICESIDYFGKFLTDSEYLTQIKPILDTQCPTKSIICFSKCLTKVSTDINTTTFRDVITMLDWLKYVVEKSLTSAICSSLKVKETDVSAVQLYREFASACSNIPEKVSNCCAKALSGEHVKYINTVKWIFKMNLVQGIQKAMLLAHDDIVTAAPFTSFYGSGGPYMKTVAEIISSGRNIDITNKDGLLVQMIEWIGSLNNFDSQWRRMMFLIFQEPTYQGIQVHESLLTTLFLISKSDQILKRCIEATDLTGTLKRVVMVKLPFQRVLKRKTIEILINFVYRTKEQFAIQLLETSVKIWSDLNYAKSAPESQERHIVRMILYLVHLFRTCSSIDWESLFLNSMDGVHCRMSMLPMYVQSGIFVNQALCKQATKHRSKTHGSDEQPPETLEENKFVSSEVGKIWFEEMTSILEHGFNSSTVKDSERVRETANEITKDDSGEEFEETNAQRLQNNKDSAAITSKNNLRLDSDDDEDFPDYQVNESEKIFKNLEIGEEPKNKVTPPAYIADAFEMLLEKEKYEVFEAAFFNITNLINRRPIGFPQIAEKLFIRILHLQNNFGTPKFKETVDEIAVACITQRPEIVPSVVRLIIAPGQGFSIKQRLLHYIHNAADGMGALDKKLEECVMAQQLRIGGPTLSIILHRTINTDYDDEDEDPHRLLVPEWRRMVDARIAANTRRIGTTREPPRAGVVNRLAQAAKYMFYPLLVLPRGENASLLGKDSDLLASLIMVASMVYVRCGVCPQIHRMSSELISYATPHRFSENAKLRTACIIAHLNVTTLLPGDLMDELFDVPALIGWFDWANSVLVNASSSQLEKDMTRQFGHSVTKHLQRYHPAVLQHQDV | not soluble
GMGIHQYFQSLSDLENIYRCPGKFKYQEHSVAEHSYKVTSIAQFFGAVEEDAGNEVNWRALYEKALNHDYSELFIGDIKTPVKYATTELREMLSEVEESMTKNFISREIPATFQPIYRHLLKEGKDSTLEGKILAISDKVDLLYESFGEIQKGNPENIFVEIYSEALATIYEYREMASVKYFLKEILPDMLAEKGIEKTELPQLTTEITTKALRDE | soluble
MAHHHHHHMMKNTVRQFVKEITYLEVWEHFRRFGDAAGPDSVKCRLLCSDAVATQLNERIRMRYLLEQFLAQSSTTTSTGVAGEPRRWWEGDLTRCVDSDRRVLAETLLEDGWMLMQLNNCVSDREWLITTMTFQREKSTT | not soluble
MRVDEFLKERNINVGDFVRITKEEDGEEVTYEGYIMPPYELSAGDTLVLKLENGYNIGIALEKIRRIEVLERAKVKPEVHFEALIEGKPGLPEVTIIGTGGTIASRIDYETGAVYPAFTAEELAKALPEIFEVANVKPKLLFNIFSEDMKPKHWVKIAHEVAKALNSGDYGVVVAHGTDTMGYTAAALSFMLRNLGKPVVLVGAQRSSDRPSSDAAMNLICSVRMATSEVAEVMVVMHGETGDTYCLAHRGTKVRKMHTSRRDAFRSINDVPIAKIWPNGEIEFLRKDYRKRSDEEVEVDDKIEEKVALVKVYPGISSEIIDFLVDKGYKGIVIEGTGLGHTPNDIIPSIERAVEEGVAVCMTSQCIYGRVNLNVYSTGRKLLKAGVIPCEDMLPETAYVKLMWVLGHTQNLEEVRKMMLTNYAGEITPYTRFDTYLR | soluble
MASGQFVNKLQEEVICPICLDILQKPVTIDCGHNFCLKCITQIGETSCGFFKCPLCKTSVRKNAIR | soluble
